Test results from paper doi:10.1101/2025.09.02.673855, “Bacteriophage T4 gene 32 protein: Insights into its Interaction with ssDNA, binding cooperativity, and conformational change” (bioRxiv, 2025).
Residue numbers refer to the chain shown, from its start. In names and notes the source's numbering stands.

B1: Bacteriophage T4 gene 32 protein, full-length protein (1-301) (natural protein, UniProt P03695 1-301, looked up)
chain: MFKRKSTAELAAQMAKLNGNKGFSSEDKGEWKLKLDNAGNGQAVIRFLPSKNDEQAPFAILVNHGFKKNGKWYIETCSSTHGDYDSCPVCQYISKNDLYNTDNKEYSLVKRKTSYWANILVVKDPAAPENEGKVFKYRFGKKIWDKINAMIAVDVEMGETPVDVTCPWEGANFVLKVKQVSGFSNYDESKFLNQSAIPNIDDESFQKELFEQMVDLSEMTSKDKFKSFEELNTKFGQVMGTAVMGGAAATAAKKADKVADDLDAFNVDDFNTKTEDDFMSSSSGSSSSADDTDLDDLLNDL
notes: also called gp32; wild-type gp32; source: expression plasmid pYS6, induced, overexpressed and purified as previously described
B2: gp32 variant E229A, E230A (natural protein, bacteriophage T4, UniProt P03695 1-301, looked up)
chain: B1 chain with E229A, E230A
notes: gene 32 protein of bacteriophage T4 with two negative charges removed within the C helix (228-237); source: pYS6 variant, induced, overexpressed and purified as previously described
B3: gp32 variant D215A, E218A, D223A (natural protein, bacteriophage T4, UniProt P03695 1-301, looked up)
chain: B1 chain with D215A, E218A, D223A
notes: gene 32 protein of bacteriophage T4 with three negative charges removed within and adjacent to the B helix (216-220); source: pYS6 variant, induced, overexpressed and purified as previously described

Target: the molecule itself
Assay: other fluorescence titration; aliquots of protein added to poly(εA), enhancement of ethenoadenylate fluorescence; 0.45 M NaCl, 0.02 M HEPES pH 7.68, 1x10^-4 M EDTA/Na+, 20°C; McGhee-von Hippel cooperative model, n = 8; ω is the cooperativity between adjacent proteins bound on the polynucleotide

Protein | cooperativity parameter ω (on poly(εA))
B1 | 2000
B2 | 1000
B3 | 120
